B1: human dual oxidase maturation factor 1 (hDUOXA1), as in the purified peptidisc complex (natural protein)
chain: MATLGHTFPFYAGPKPTFPMDTTLASIIMIFLTALATFIVILPGIRGKTRLFWLLRVVTSLFIGAAILAVNFSSEWSVGQVSTNTSYKAFSSEWISADIGLQVGLGGVNITLTGTPVQQLNETINYNEEFTWRLGENYAEEYAKALEKGLPDPVLYLAEKFTPRSPCGLYRQYRLAGHYTSAMLWVAFLCWLLANVMLSMPVLVYGGYMLLATGIFQLLALLFFSMATSLTSPCPLHLGASVLHTHHGPAFWITLTTGLLCVLLGLAMAVAHRMQPHRLKAFFNQSVDEDPMLEWSPEEGGLLSPRYRSMADSPKSQDIPLSEASSTKAY
modifications: N-linked glycosylation on N109
notes: human DUOXA1; cDNA cloned into a non-tagged BacMam vector or one with C-terminal MBP-mScarlet tag; the non-tagged one is surmised here; source: HEK293F, BacMam baculovirus infection, co-expressed with hDUOX1 from a bicistronic vector; purified with hDUOX1 (Streptactin beads, peptidisc, Superose 6 increase)
B2: human dual oxidase 1 (hDUOX1), matured protein 20-1551 with N-terminal GFP tag (enzyme, UniProt Q9NRD9-1 20-1551, looked up)
chain: GAQNPISWEVQRFDGWYNNLMEHRWGSKGSRLQRLVPASYADGVYQPLGEPHLPNPRDLSNTISRGPAGLASLRNRTVLGVFFGYHVLSDLVSVETPGCPAEFLNIRIPPGDPMFDPDQRGDVVLPFQRSRWDPETGRSPSNPRDPANQVTGWLDGSAIYGSSHSWSDALRSFSRGQLASGPDPAFPRDSQNPLLMWAAPDPATGQNGPRGLYAFGAERGNREPFLQALGLLWFRYHNLWAQRLARQHPDWEDEELFQHARKRVIATYQNIAVYEWLPSFLQKTLPEYTGYRPFLDPSISSEFVAASEQFLSTMVPPGVYMRNASCHFQGVINRNSSVSRALRVCNSYWSREHPSLQSAEDVDALLLGMASQIAEREDHVLVEDVRDFWPGPLKFSRTDHLASCLQRGRDLGLPSYTKARAALGLSPITRWQDINPALSRSNDTVLEATAALYNQDLSWLELLPGGLLESHRDPGPLFSTIVLEQFVRLRDGDRYWFENTRNGLFSKKEIEEIRNTTLQDVLVAVINIDPSALQPNVFVWHKGDPCPQPRQLSTEGLPACAPSVVRDYFEGSGFGFGVTIGTLCCFPLVSLLSAWIVARLRMRNFKRLQGQDRQSIVSEKLVGGMEALEWQGHKEPCRPVLVYLQPGQIRVVDGRLTVLRTIQLQPPQKVNFVLSSNRGRRTLLLKIPKEYDLVLLFNLEEERQALVENLRGALKESGLSIQEWELREQELMRAAVTREQRRHLLETFFRHLFSQVLDINQADAGTLPLDSSQKVREALTCELSRAEFAESLGLKPQDMFVESMFSLADKDGNGYLSFREFLDILVVFMKGSPEEKSRLMFRMYDFDGNGLISKDEFIRMLRSFIEISNNCLSKAQLAEVVESMFRESGFQDKEELTWEDFHFMLRDHNSELRFTQLCVKGVEVPEVIKDLCRRASYISQDMICPSPRVSARCSRSDIETELTPQRLQCPMDTDPPQEIRRRFGKKVTSFQPLLFTEAHREKFQRSCLHQTVQQFKRFIENYRRHIGCVAVFYAIAGGLFLERAYYYAFAAHHTGITDTTRVGIILSRGTAASISFMFSYILLTMCRNLITFLRETFLNRYVPFDAAVDFHRLIASTAIVLTVLHSVGHVVNVYLFSISPLSVLSCLFPGLFHDDGSEFPQKYYWWFFQTVPGLTGVVLLLILAIMYVFASHHFRRRSFRGFWLTHHLYILLYVLLIIHGSFALIQLPRFHIFFLVPAIIYGGDKLVSLSRKKVEISVVKAELLPSGVTHLRFQRPQGFEYKSGQWVRIACLALGTTEYHPFTLTSAPHEDTLSLHIRAAGPWTTRLREIYSAPTGDRCARYPKLYLDGPFGEGHQEWHKFEVSVLVGGGIGVTPFASILKDLVFKSSVSCQVFCKKIYFIWVTRTQRQFEWLADIIREVEENDHQDLVSVHIYITQLAEKFDLRTTMLYICERHFQKVLNRSLFTGLRSITHFGRPPFEPFFNSLQEVHPQVRKIGVFSCGPPGMTKNVEKACQLINRQDRTHFSHHYENF
modifications: N-linked glycosylation
notes: human DUOX1, matured protein residues 20-1551; Secretion guided by a rat FSHbeta signal peptide before the GFP tag; GFP-tagged protein is 219 kDa; also called GFP-tagged hDUOX1; WT hDOUX1; source: HEK293F, BacMam baculovirus infection; digitonin-solubilised membrane for FSEC; purified with hDUOXA1 (Streptactin beads, peptidisc with NSPr, Superose 6 increase) for cryo-EM; not shown: GFP, …

Tests used:
[1] = molecular target: B2; test: cryo-EM structure; hDUOX1-hDUOXA1 complex in peptidisc (NSPr); 2.5 mM EGTA (low calcium) or 0.5 mM free calcium (high calcium); 100 uM FAD, 500 uM NADPH, 0.5 mM fluorinated octyl-maltoside; conditions: both partners purified
[2] = molecular target: the molecule itself; test: SEC; fluorescence size-exclusion chromatography (FSEC) of GFP-tagged hDUOX1 co-expressed with hDUOXA1; membrane solubilised in TBS + 1% digitonin, 1 h, 4 °C

Row | Binder | stoichiometry N [1] | binding result [2]
1 | B1 | 1 hDUOXA1 per hDUOX1 (2:2) | –
2 | B2 | – | binds

From article PMC7794343, “Structures of human dual oxidase 1 complex in low-calcium and high-calcium states” (Nature Communications, 2021)
